How the values were obtained:
[1] = target: SH3P2 (Arabidopsis thaliana) (UniProt Q8VWF1); test: mass photometry; SH3P2 at 100 nM; 25 mM HEPES pH 7.5, 200 mM NaCl, 25 mM KH2PO4 pH 8.0; monomer to dimer
[2] = target: SH3P2 (Arabidopsis thaliana) (UniProt Q8VWF1); test: mass photometry; SH3P2 at 75 nM; 25 mM HEPES pH 7.5, 200 mM NaCl, 25 mM KH2PO4 pH 8.0; monomer to dimer

SH3P2 (from UniProt Q8VWF1 1-368) (natural protein)
percent of dimers at 100 nM [1]: 85%
stoichiometry N [1]: 2
percent of dimers at 75 nM [2]: 60%

— paper PMC11112126
